Legend:
[1] = target: T1, α5β1 integrin protein, covalently immobilised on the optical biosensor cuvette; assay: optical biosensor (IAsys), α5β1 immobilised, DV free in solution; Kd from Koff/Kon
T1 construct: The methods call the immobilised protein 'the α5β1 protein' and also 'immobilized α5'; The results speak of α5β1 integrin; also called α5β1 protein; immobilized α5 integrin
Experimental: (§1) Binding assays were carried out using an optical biosensor (IAsys; Affinity Sensors, UK) as described¹⁰⁸. In brief, to covalently bind the α5β1 protein, designated as an acceptor, onto the surfaces of a sensor, carboxylate groups present on the surface were activated by injection of a 1:1 mixture of 0.1 M N-hydroxysuccinimide and 0.4 M N-Ethyl-3-(3-dimethylaminopropyl) carbodiimide (Pierce). The acceptor dissolved in phosphate buffered saline (PBS) was then allowed to bind to the activated surface until a response plateau was reached. The residual active groups were blocked by an injection of 100 μL of 1 M Tris-HCl (pH 8.5).
(§2) The binding of DV to α5β1 was also investigated. DV's DGR sequence was mutated to AGR (D3904A) to determine whether this could disrupt DV binding to α5β1 as measured with optical biosensor (FIG. 18A).

[2] = target: T1, α5β1 integrin protein, covalently …; assay: optical biosensor (IAsys), α5β1 immobilised, DV free in solution
Experimental: as §1, §2

B1: Human perlecan Domain V (DV), recombinant, with C-terminal 6×His tag (ligand)
chain: EIKITFRPDSADGMLLYNGQKRVPGSPTNLANRQPDFISFGLVGGRPEFRFDAGSGMATIRHPTPLALGHFHTVTLLRSLTQGSLIVGDLAPVNGTSQGKFQGLDLNEELYLGGYPDYGAIPKAGLSSGFIGCVRELRIQGEEIVFHDLNLTAHGISHCPTCRDRPCQNGGQCHDSESSSYVCVCPAGFTGSRCEHSQALHCHPEACGPDATCVNRPDGRGYTCRCHLGRSGLRCEEGVTVTTPSLSGAGSYLALPALTNTHHELRLDVEFKPLAPDGVLLFSGGKSGPVEDFVSLAMVGGHLEFRYELGSGLAVLRSAEPLALGRWHRVSAERLNKDGSLRVNGGRPVLRSSPGKSQGLNLHTLLYLGGVEPSVPLSPATNMSAHFRGCVGEVSVNGKRLDLTYSFLGSQGIGQCYDSSPCERQPCQHGATCMPAGEYEFQCLCRDGFKGDLCEHEENPCQLREPCLHGGTCQGTRCLCLPGFSGPRCQQGSGHGIAESDWHLEGSGGNDAPGQYGAYFHDDGFLAFPGHVFSRSLPEVPETIELEVRTSTASGLLLWQGVEVGEAGQGKDFISLGLQDGHLVFRYQLGSGEARLVSEDPINDGEWHRVTALREGRRGSIQVDGEELVSGRSPGPNVAVNAKGSVYIGGAPDVATLTGGRFSSGITGCVKNLVLHSARPGAPPPQPLDLQHRAQAGANTRPCPSHHHHHH
notes: Cloned from HUVEC cDNA into pSecTag2A or pCepPu, secreted from 293 cells and purified on Ni beads; also called endorepellin; rhDV
- Kd [1]: 160 nM
- koff [2]: 0.72 s⁻¹
